According to patent publication US20230340065A1 (published 2023):
One block for each binder: values may come before it.

Assays:
[1] = target: T1, PRAME peptide on HLA-A*24:02 (human); test: multimer staining
T1 peptide: LYVDSLFFL

[2] = target: T2, PRAME peptide on HLA-A*02:17 (human); test: cytokine release
T2 peptide: LYVDSLFFL

[3] = target: T3, KCNK12 peptide on HLA-A*24:02 (human); test: cytokine release
T3 peptide: DYVDSLYFC

[4] = target: T4, XXYLT1 peptide on HLA-A*24:02 (human); test: cytokine release
T4 peptide: YYSDSIFFL

[5] = target: T5, FBXO24 peptide on HLA-A*24:02 (human); test: cytokine release
T5 peptide: DYVGTLFFL

[6] = target: T6, CATSPERB peptide on HLA-A*24:02 (human); test: cytokine release
T6 peptide: LYYDHLGFL

[7] = target: T7, GTPBP6 peptide on HLA-A*24:02 (human); test: cytokine release
T7 peptide: LYVDTIGFL

- binding result [1]: recognises
- binding result [2]: recognises
- binding result [3]: no recognition
- binding result [4]: no recognition
- binding result [5]: recognises
- binding result [6]: no recognition
- binding result [7]: no recognition
B1: TCR T116-49 (TCR, V domains shown)
Valpha: QQPVQSPQAVILREGEDAVINCSSSKALYSVHWYRQKHGEAPVFLMILLKGGEQKGHEKISASFNEKKQQSSLYLTASQLSYSGTYFCGTANSGGSNYKLTFGKGTLLTVNP
Vbeta: DAGITQSPRHKVTETGTPVTLRCHQTENHRYMYWYRQDPGHGLRLIHYSYGVKDTDKGEVSDGYSVSRSKTEDFLLTLESATSSQTSVYFCAISDYEGTEAFFGQGTRLTVV

- binding result [1]: recognises
- binding result [3]: recognises
- binding result [4]: recognises
- binding result [5]: no recognition
- binding result [6]: recognises
- binding result [7]: recognises
B2: TCR T402-93 (TCR, V domains shown)
Valpha: GQQVMQIPQYQHVQEGEDFTTYCNSSTTLSNIQWYKQRPGGHPVFLIQLVKSGEVKKQKRLTFQFGEAKKNSSLHITATQTTDVGTYFCAGALPRAGSYQLTFGKGTKLSVIP
Vbeta: SQTIHQWPATLVQPVGSPLSLECTVEGTSNPNLYWYRQAAGRGLQLLFYSVGIGQISSEVPQNLSASRPQDRQFILSSKKLLLSDSGFYLCAWSLGAGYTDTQYFGPGTRLTVL
